Data published in patent publication US20050037969A1 (ARBOR VITA, published 2005).
Ends that are not written are not given here. * marks the point of attachment. Biotin = O=C1N[C@H]2[C@H](CS[C@H]2CCCCC(=O)*)N1

Experiments:
Experiment in all cases: A/G assays
[1] = biological target: T1, GST-CASK PDZ domain fusion protein (Homo sapiens, UniProt O14936 486-575)
T1 construct: also called Homo sapiens CASK protein
T1 sequence: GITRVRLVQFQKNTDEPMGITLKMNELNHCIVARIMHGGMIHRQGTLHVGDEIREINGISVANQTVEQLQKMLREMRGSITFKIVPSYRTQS

[2] = biological target: T2, GST-LIM protein PDZ domain fusion protein (Human, UniProt Q96HC4 2-85)
T2 construct: also called Human LIM protein; not shown: glutathione S-transferase encoded by vector pGEX-3X (Pharmacia)
T2 sequence: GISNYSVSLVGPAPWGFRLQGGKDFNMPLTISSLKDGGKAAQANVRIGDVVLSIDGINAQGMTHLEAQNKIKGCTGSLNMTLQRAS

[3] = biological target: T3, GST-prIL16 fusion protein (PDZ domains 1-2) (Homo sapiens (Human), UniProt Q14005 1111-1324)
T3 construct: also called putative interleukin 16 precursor; not shown: glutathione S-transferase encoded by vector pGEX-3X (Pharmacia)
T3 sequence: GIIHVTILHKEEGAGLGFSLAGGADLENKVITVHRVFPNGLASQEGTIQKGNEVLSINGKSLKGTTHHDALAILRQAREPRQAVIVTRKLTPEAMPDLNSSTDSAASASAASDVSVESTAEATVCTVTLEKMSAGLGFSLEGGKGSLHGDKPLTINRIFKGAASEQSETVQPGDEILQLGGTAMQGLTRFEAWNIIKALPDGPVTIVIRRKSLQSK

[4] = biological target: T4, GST-cytohesin binding protein PDZ domain fusion protein (Homo sapiens (Human), UniProt O60759 74-165)
T4 construct: also called CBP; not shown: glutathione S-transferase encoded by vector pGEX-3X (Pharmacia)
T4 sequence: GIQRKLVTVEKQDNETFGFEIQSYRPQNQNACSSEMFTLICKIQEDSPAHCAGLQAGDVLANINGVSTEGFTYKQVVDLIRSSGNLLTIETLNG

[5] = biological target: T5, GST-PDZK1 fusion protein (PDZ domains 2-4) (Homo sapiens, UniProt Q5T2W1 134-457)
T5 construct: not shown: glutathione S-transferase encoded by vector pGEX-3X (Pharmacia)
T5 sequence: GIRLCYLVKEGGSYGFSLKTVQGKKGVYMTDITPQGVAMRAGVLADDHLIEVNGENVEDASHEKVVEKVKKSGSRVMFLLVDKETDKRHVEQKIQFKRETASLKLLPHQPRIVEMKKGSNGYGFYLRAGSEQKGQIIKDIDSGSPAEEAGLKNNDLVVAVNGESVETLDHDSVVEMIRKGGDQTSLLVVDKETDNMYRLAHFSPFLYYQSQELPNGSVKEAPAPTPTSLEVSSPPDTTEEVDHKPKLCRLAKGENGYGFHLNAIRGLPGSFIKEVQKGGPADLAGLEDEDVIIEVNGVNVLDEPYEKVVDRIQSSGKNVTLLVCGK

[6] = biological target: T6, GST-mouse syntenin fusion protein (Mus musculus, UniProt O08992 108-286)
T6 construct: also called Mus musculus Syntenin; not shown: glutathione S-transferase encoded by vector pGEX-3X (Pharmacia)
T6 chain: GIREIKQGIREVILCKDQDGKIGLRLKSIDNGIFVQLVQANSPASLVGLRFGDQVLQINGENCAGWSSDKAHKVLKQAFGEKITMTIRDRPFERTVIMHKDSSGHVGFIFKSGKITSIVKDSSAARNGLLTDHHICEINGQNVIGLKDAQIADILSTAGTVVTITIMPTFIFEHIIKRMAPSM

[7] = biological target: T7, GST-TAX-IP40 PDZ domain fusion protein (human, UniProt Q6B4M5 150-252 (rat entry))
T7 construct: also called TAX40; not shown: glutathione S-transferase encoded by vector pGEX-3X (Pharmacia)
T7 sequence: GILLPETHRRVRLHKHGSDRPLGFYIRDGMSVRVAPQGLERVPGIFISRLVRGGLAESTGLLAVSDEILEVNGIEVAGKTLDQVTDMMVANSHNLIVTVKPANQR

[8] = biological target: T8, MINT3 PDZ-GST fusion protein
T8 construct: Order of GST and PDZ part and limits not seen in the excerpts
T8 chain: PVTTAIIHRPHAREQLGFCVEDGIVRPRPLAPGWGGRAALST

[9] = biological target: T9, K559 PDZ-GST fusion protein (Homo sapiens (Human), UniProt Q9Y6V0 4489-4593)
T9 construct: Order of GST and PDZ part and limits not seen in the excerpts
T9 sequence: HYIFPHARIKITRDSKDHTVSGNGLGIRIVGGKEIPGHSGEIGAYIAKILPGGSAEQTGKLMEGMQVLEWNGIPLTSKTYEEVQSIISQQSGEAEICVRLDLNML

[10] = biological target: T10, PICK1 PDZ-GST fusion protein (Bos taurus (Bovine), UniProt Q2T9M1 17-105)
T10 construct: Order of GST and PDZ part and limits not seen in the excerpts

[11] = biological target: T11, K858 PDZ-GST fusion protein (Homo sapiens (Human), UniProt Q8WWI1 1038-1131)
T11 construct: Order of GST and PDZ part and limits not seen in the excerpts
T11 sequence: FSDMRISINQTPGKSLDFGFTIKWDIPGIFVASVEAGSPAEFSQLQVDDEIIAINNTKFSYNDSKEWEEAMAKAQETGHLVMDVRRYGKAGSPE

[12] = biological target: T12, ConEn PDZ-GST fusion protein (Homo sapiens (Human), UniProt Q969H4 193-287)
T12 construct: The label ConEn is not explained in the excerpts
T12 sequence: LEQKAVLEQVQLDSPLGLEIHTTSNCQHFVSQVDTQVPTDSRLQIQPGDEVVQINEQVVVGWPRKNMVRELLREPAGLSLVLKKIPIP

[13] = biological target: T13, NSP PDZ-GST fusion protein (Homo sapiens (Human), UniProt Q92743 370-466)
T13 construct: The label NSP is not explained in the excerpts

[14] = biological target: T14, NOS1 PDZ-GST fusion protein (Homo sapiens (Human), UniProt P29475 11-100)
T14 construct: Order of GST and PDZ part and limits not seen in the excerpts

Measured: binding result

T14 sequence (P29475 11-100 limits assumed): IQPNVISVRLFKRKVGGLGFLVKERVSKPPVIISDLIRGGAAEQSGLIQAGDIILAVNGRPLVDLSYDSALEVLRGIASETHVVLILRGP
T10 sequence (Q2T9M1 other isoform, or with tags, fused parts or gaps limits assumed): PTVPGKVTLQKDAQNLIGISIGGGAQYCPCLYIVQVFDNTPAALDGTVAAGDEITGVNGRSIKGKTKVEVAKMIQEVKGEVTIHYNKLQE
T13 sequence (Q92743 other isoform, or with tags, fused parts or gaps limits assumed): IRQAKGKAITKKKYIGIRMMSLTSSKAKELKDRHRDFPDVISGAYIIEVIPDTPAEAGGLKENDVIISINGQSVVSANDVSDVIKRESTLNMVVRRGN

B1: CC CKR-1R C-terminal peptide AA41L (peptide)
peptide: Biotin-LERVSSTSPSTGEHELSAGF
notes: Only the last four residues are seen in the excerpts
no binding: [1] | [2] | [3] | [4] | [5] | [6] | [7] | [8] | [9] | [10] | [11] | [12] | [13] | [14]

B2: FceRIb C-terminal peptide AA25L, biotinylated (peptide)
peptide: Biotin-YSATYSELEDPGEMSPPIDL
notes: also called FceRlb; FcεRβI
no binding: [1] | [2] | [3] | [4] | [5] | [6] | [7] | [8] | [9] | [10] | [11] | [12] | [13] | [14]

B3: CD166 C-terminal peptide AA20L, biotinylated (peptide)
peptide: Biotin-DLGNMEENKKLEENNHKTEA
notes: also called CD166 (CD6L)
no binding: [1] | [2] | [3] | [4] | [5] | [6] | [7] | [8] | [9] | [10] | [11] | [12] | [13] | [14]

B4: CD83 C-terminal peptide AA47L, biotinylated (peptide)
peptide: Biotin-VTSPNKHLGLVTPHKTELV
no binding: [1] | [2] | [3] | [4] | [5] | [6] | [7] | [8] | [9] | [10] | [11] | [12] | [13] | [14]
